Reference: patent US20220251152A1, “COMPOSITIONS AND METHODS FOR SELECTIVE PROTEIN DEGRADATION” (Novartis AG, priority 2019, published 2022)
Positions count from the first letter of the chain named. “Also recorded” adds a separate entry of the source.

Columns and labels:
[1] = tested on: NanoLuciferase fused to various IKZF3-based degradation tags; test: Western blot of variant IKZF3-based degradation tags fused to NanoLuciferase in HEK293T cells; format: cell-based, human; settings: tag fused to N-terminus of NanoLuciferase
Experimental: Additionally, the IKZF3-based degradation tags were modified using the following strategies:
(1) deleting N-terminal and/or C-terminal amino acid residues;
Protein degradation was measured using western blot as described in Example 2.

[2] = tested on: CAR19 fused to HilD tag and/or FurON; test: Flow cytometry of surface CAR expression on JNL cells, 10 μM lenalidomide and/or bazedoxifene 24 hours; format: cell-based, human; settings: surface CAR on transduced JNL cells; for Effect of lenalidomide / % reduction in CAR expression: 10 μM lenalidomide, 24 hours; for CAR Expression: flow cytometry, FurON constructs only in presence of bazedoxifene; for Effect of bazedoxifene: with/without bazedoxifene
Description: Next, the surface expression of CAR19 on stably transduced JNL cells was examined by flow cytometry. […] On Day 2, cells were harvested, stained using biotinylated-protein L (Genscript, M00097) followed by PE conjugated streptavidin (Jackson Lab, 016-110-084), and subjected to flow cytometry analysis using Fortessa instrument.

IKZF3 136-180 MALEK: residues 236-249 replaced with helix MALEKMALEKMALE, SEQ ID NO: 85
ability of the tag to facilitate lenalidomide-dependent degradation of NanoLuciferase [1]: retained the ability to facilitate lenalidomide-dependent degradation; also recorded: facilitated lenalidomide-induced degradation

IKZF3 136-180 and 236-249 K245R: tag with lysine at position 245 mutated to arginine, SEQ ID NO: 84 (HKRSHTGERPFQCNQCGASFTQKGNLLRHIKLHTGEKPFKCHLCNTASAEARHIRAEMG; source: /note="Description of Unknown: IKZF3 sequence")
ability of the tag to facilitate lenalidomide-dependent degradation of NanoLuciferase [1]: facilitated lenalidomide-induced degradation
ability of the tag to facilitate lenalidomide-dependent degradation of NanoLuciferase ([1]; listed as SEQ ID NO: 84): did not significantly impact the ability of the tag to mediate degradation

IKZF3 145-155 MALEK: tag comprising the amino acid sequence of SEQ ID NO: 89 (PFQCNQCGASFMALEKMALEKMALE; source: /note="Description of Unknown: IKZF3 sequence")
ability of the tag to facilitate lenalidomide-dependent degradation of NanoLuciferase [1]: did not mediate lenalidomide-induced degradation; also recorded: did not mediate lenalidomide induced degradation

IKZF3 136-180 and 236-249 K245S: tag with lysine at position 245 mutated to serine, SEQ ID NO: 100 (HKRSHTGERPFQCNQCGASFTQKGNLLRHIKLHTGEKPFKCHLCNTASAEARHISAEMG; source: /note="Description of Unknown: IKZF3 sequence")
ability of the tag to facilitate lenalidomide-dependent degradation of NanoLuciferase [1]: facilitated lenalidomide-induced degradation
ability of the tag to facilitate lenalidomide-dependent degradation of NanoLuciferase ([1]; listed as SEQ ID NO: 100): did not significantly impact the ability of the tag to mediate degradation

IKZF3 141-163 MALEK: tag comprising the amino acid sequence of SEQ ID NO: 88 (TGERPFQCNQCGASFTQKGNLLRMALEKMALEKMALE; source: /note="Description of Unknown: IKZF3 sequence")
ability of the tag to facilitate lenalidomide-dependent degradation of NanoLuciferase [1]: did not mediate lenalidomide-induced degradation; also recorded: did not mediate lenalidomide induced degradation

B1: 765 (protein)
chain: MALPVTALLLPLALLLHAARPRSSLALSLTADQMVSALLDAEPPILYSEYDPTRPFSEASMMGLLTNLADRELVHMINWAKRVPGFVDLALHDQVHLLECAWMEILMIGLVWRSMEHPGKLLFAPNLLLDRNQGKCVEGGVEIFDMLLATSSRFRMMNLQGEEFVCLKSIILLNSGVYTFLSSTLKSLEEKDHIHRVLDKITDTLIHLMAKAGLTLQQQHQRLAQLLLILSHIRHMSSKRMEHLYSMKCKNVVPLSDLLLEMLDAHRLGTGAEDPRPSRKRRSLGDVGEIVMTQSPATLSLSPGERATLSCRASQDISKYLNWYQQKPGQAPRLLIYHTSRLHSGIPARFSGSGSGTDYTLTISSLQPEDFAVYFCQQGNTLPYTFGQGTKLEIKGGGGSGGGGSGGGGSQVQLQESGPGLVKPSETLSLTCTVSGVSLPDYGVSWIRQPPGKGLEWIGVIWGSETTYYQSSLKSRVTISKDNSKNQVSLKLSSVTAADTAVYYCAKHYYYGGSYAMDYWGQGTLVTVSSTTTPAPRPPTPAPTIASQPLSLRPEACRPAAGGAVHTRGLDFACDIYIWAPLAGTCGVLLLSLVITLYCKRGRKKLLYIFKQPFMRPVQTTQEEDGCSCRFPEEEEGGCELRVKFSRSADAPAYQQGQNQLYNELNLGRREEYDVLDKRRGRDPEMGGKPRRKNPQEGLYNELQKDKMAEAYSEIGMKGERRRGKGHDGLYQGLSTATKDTYDALHMQALPPR
Effect of lenalidomide [2]: No
CAR Expression [2]: Yes
Effect of bazedoxifene [2]: Yes

B2: 766 (protein)
chain: MALPVTALLLPLALLLHAARPRSSLALSLTADQMVSALLDAEPPILYSEYDPTRPFSEASMMGLLTNLADRELVHMINWAKRVPGFVDLALHDQVHLLECAWMEILMIGLVWRSMEHPGKLLFAPNLLLDRNQGKCVEGGVEIFDMLLATSSRFRMMNLQGEEFVCLKSIILLNSGVYTFLSSTLKSLEEKDHIHRVLDKITDTLIHLMAKAGLTLQQQHQRLAQLLLILSHIRHMSSKRMEHLYSMKCKNVVPLSDLLLEMLDAHRLGTGAEDPRPSRKRRSLGDVGEIVMTQSPATLSLSPGERATLSCRASQDISKYLNWYQQKPGQAPRLLIYHTSRLHSGIPARFSGSGSGTDYTLTISSLQPEDFAVYFCQQGNTLPYTFGQGTKLEIKGGGGSGGGGSGGGGSQVQLQESGPGLVKPSETLSLTCTVSGVSLPDYGVSWIRQPPGKGLEWIGVIWGSETTYYQSSLKSRVTISKDNSKNQVSLKLSSVTAADTAVYYCAKHYYYGGSYAMDYWGQGTLVTVSSTTTPAPRPPTPAPTIASQPLSLRPEACRPAAGGAVHTRGLDFACDIYIWAPLAGTCGVLLLSLVITLYCKRGRKKLLYIFKQPFMRPVQTTQEEDGCSCRFPEEEEGGCELRVKFSRSADAPAYQQGQNQLYNELNLGRREEYDVLDKRRGRDPEMGGKPRRKNPQEGLYNELQKDKMAEAYSEIGMKGERRRGKGHDGLYQGLSTATKDTYDALHMQALPPRGGGGSGGGGTGGGGSGMHKRSHTGERPFQCNQCGASFTQKGNLLRHIKLHTGEKPFKCHLCNTASAEARHIKAEMGGKPIPNPLLGLDST
% reduction in CAR expression [2]: 92%
Effect of lenalidomide [2]: Yes
CAR Expression [2]: Yes
Effect of bazedoxifene [2]: Yes

B3: 6761 (protein)
chain: MALPVTALLLPLALLLHAARPEIVMTQSPATLSLSPGERATLSCRASQDISKYLNWYQQKPGQAPRLLIYHTSRLHSGIPARFSGSGSGTDYTLTISSLQPEDFAVYFCQQGNTLPYTFGQGTKLEIKGGGGSGGGGSGGGGSQVQLQESGPGLVKPSETLSLTCTVSGVSLPDYGVSWIRQPPGKGLEWIGVIWGSETTYYQSSLKSRVTISKDNSKNQVSLKLSSVTAADTAVYYCAKHYYYGGSYAMDYWGQGTLVTVSSTTTPAPRPPTPAPTIASQPLSLRPEACRPAAGGAVHTRGLDFACDIYIWAPLAGTCGVLLLSLVITLYCKRGRKKLLYIFKQPFMRPVQTTQEEDGCSCRFPEEEEGGCELRVKFSRSADAPAYQQGQNQLYNELNLGRREEYDVLDKRRGRDPEMGGKPRRKNPQEGLYNELQKDKMAEAYSEIGMKGERRRGKGHDGLYQGLSTATKDTYDALHMQALPPRKGGGSKGGGTKGGGSKMHKRSHTGERPFQCNQCGASFTQKGNLLRHIKLHTGEKPFKCHLCNTASAEARHIKAEMGGKPIPNPLLGLDST
% reduction in CAR expression [2]: 77%
Effect of lenalidomide [2]: Yes
CAR Expression [2]: Yes

B4: 768 (protein)
chain: B3 chain with K487G, K492G, K497G, K502G
% reduction in CAR expression [2]: 88%
Effect of lenalidomide [2]: Yes
CAR Expression [2]: Yes

B5: 769 (protein)
chain: MALPVTALLLPLALLLHAARPEIVMTQSPATLSLSPGERATLSCRASQDISKYLNWYQQKPGQAPRLLIYHTSRLHSGIPARFSGSGSGTDYTLTISSLQPEDFAVYFCQQGNTLPYTFGQGTKLEIKGGGGSGGGGSGGGGSQVQLQESGPGLVKPSETLSLTCTVSGVSLPDYGVSWIRQPPGKGLEWIGVIWGSETTYYQSSLKSRVTISKDNSKNQVSLKLSSVTAADTAVYYCAKHYYYGGSYAMDYWGQGTLVTVSSTTTPAPRPPTPAPTIASQPLSLRPEACRPAAGGAVHTRGLDFACDIYIWAPLAGTCGVLLLSLVITLYCKRGRKKLLYIFKQPFMRPVQTTQEEDGCSCRFPEEEEGGCELRVKFSRSADAPAYQQGQNQLYNELNLGRREEYDVLDKRRGRDPEMGGKPRRKNPQEGLYNELQKDKMAEAYSEIGMKGERRRGKGHDGLYQGLSTATKDTYDALHMQALPPRGGGGSGGGGTGGGGSGMHKRSHTGERPFQCNQCGASFTQKGNLLRHIKLHTGEKPFKCHLCNTASAEARHIKAEMG
% reduction in CAR expression [2]: 90%
Effect of lenalidomide [2]: Yes
CAR Expression [2]: Yes

B6: 767 (protein)
chain: MALPVTALLLPLALLLHAARPRSSLALSLTADQMVSALLDAEPPILYSEYDPTRPFSEASMMGLLTNLADRELVHMINWAKRVPGFVDLALHDQVHLLECAWMEILMIGLVWRSMEHPGKLLFAPNLLLDRNQGKCVEGGVEIFDMLLATSSRFRMMNLQGEEFVCLKSIILLNSGVYTFLSSTLKSLEEKDHIHRVLDKITDTLIHLMAKAGLTLQQQHQRLAQLLLILSHIRHMSSKRMEHLYSMKCKNVVPLSDLLLEMLDAHRLGTGAEDPRPSRKRRSLGDVGEIVMTQSPATLSLSPGERATLSCRASQDISKYLNWYQQKPGQAPRLLIYHTSRLHSGIPARFSGSGSGTDYTLTISSLQPEDFAVYFCQQGNTLPYTFGQGTKLEIKGGGGSGGGGSGGGGSQVQLQESGPGLVKPSETLSLTCTVSGVSLPDYGVSWIRQPPGKGLEWIGVIWGSETTYYQSSLKSRVTISKDNSKNQVSLKLSSVTAADTAVYYCAKHYYYGGSYAMDYWGQGTLVTVSSTTTPAPRPPTPAPTIASQPLSLRPEACRPAAGGAVHTRGLDFACDIYIWAPLAGTCGVLLLSLVITLYCKRGRKKLLYIFKQPFMRPVQTTQEEDGCSCRFPEEEEGGCELRVKFSRSADAPAYQQGQNQLYNELNLGRREEYDVLDKRRGRDPEMGGKPRRKNPQEGLYNELQKDKMAEAYSEIGMKGERRRGKGHDGLYQGLSTATKDTYDALHMQALPPRGGGGSGGGGTGGGGSGMHKRSHTGERPFQCNQCGASFTQKGNLLRHIKLHTGEKPFKCHLCNTASAEARHIKAEMG
% reduction in CAR expression [2]: 95%
Effect of lenalidomide [2]: Yes
CAR Expression [2]: Yes
Effect of bazedoxifene [2]: Yes
